Test results taken from the supplement of paper PMC7877785.
± gives the uncertainty stated by the source.

Assay: self-splicing fitness, log relative to wild type (ln ratio); higher = more splicing; Tetrahymena group I intron in knt gene, E. coli kanamycin selection, DiMSum; sequences stand for … in CUCUCU…GGAGGGAAAAGUUAUCAGGCAUGCACCUGGUAGCUAGUCUUUAAACCAAUAGAUUGCAUCGGUUUAAAAGGCAAGACCGUCAAAUUGCGGGAAAGGGGUCAACAGCCGUUCAGUACCAAGUCUCAGGGGAAACUUUGAGAUGGCCUUGCAAAGGGUAUGGUAAUAAGCUGACGGACAUGGUCCUAACCACGCAGCCAAGUCCUAAGUCAACAGAUCUUCUGUUGAUAUGGAUGCAGUUCACAGACUAAAUGUCGGUCGGGGAAGAUGUAUUCUUCUCAUAAGAUAUAGUCGGACCUCUCCUUAAUGGGAGCUAGCGGAUGAAGUGAUGCAACACUGGAGCCGCUGGGAACUAAUUUGUAUGCGAAAGUAUAUUGAUUAGUUUUGGAGUACUCGUGGUCG
Outline: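 Pooled colonies went to amplicon sequencing on an Illumina HiSeq 2500 after six replicate transformations. The plates were LB agar with 100 μg/mL carbenicillin, 50 μM IPTG and 0.2% rhamnose, with or without 25 μg/mL kanamycin, incubated overnight at 37°C or 30°C. The E. coli BL21(DE3) library had all eight P1ex-region intron nucleotides randomised, the intron placed in the knt kanamycin-resistance gene on pET-22b(+). DiMSum fitness is the error-weighted combination of replicate fold changes, kanamycin against none, normalised to wild type.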

Sequence	self-splicing fitness (ln) (30 °C)	self-splicing fitness (ln) (37 °C)
AAUGAGCAAUAUUACGCUGU	-1.84 ± 0.34	-2.21 ± 0.4
AAUGAGCAAUAUUACGCUUC		-1.71 ± 0.23
AAUGAGCAAUAUUACGGAAA	-2.99 ± 0.48	-1.86 ± 0.31
AAUGAGCAAUAUUACGGACG	-2.44 ± 0.2	
AAUGAGCAAUAUUACGGAUA	-1.86 ± 0.27	-1.8 ± 0.37
AAUGAGCAAUAUUACGGAUC	-2.24 ± 0.3	-0.974 ± 0.3
AAUGAGCAAUAUUACGGCCA		0.411 ± 0.39
AAUGAGCAAUAUUACGGCCU	-1.17 ± 0.17	-1.47 ± 0.21
AAUGAGCAAUAUUACGGCGC	-1.82 ± 0.089	-1.09 ± 0.11
AAUGAGCAAUAUUACGGGUC	-2.57 ± 0.37	
AAUGAGCAAUAUUACGGUCG	-2.26 ± 0.14	-1.62 ± 0.2
AAUGAGCAAUAUUACGUACG	-3 ± 0.26	-2.32 ± 0.24
AAUGAGCAAUAUUACGUCCA	-2.41 ± 0.19	-2.27 ± 0.3
AAUGAGCAAUAUUACGUUAG	-3.2 ± 0.21	-2.3 ± 0.25
AAUUAGCAAUAUUACGAACU	0.296 ± 0.1	0.321 ± 0.14
AAUUAGCAAUAUUACGACGG	-0.969 ± 0.14	-0.972 ± 0.25
AAUUAGCAAUAUUACGAUAA	-0.869 ± 0.098	-0.069 ± 0.14
AAUUAGCAAUAUUACGAUGG	-3.31 ± 0.24	-0.247 ± 0.17
AAUUAGCAAUAUUACGCACC	-0.701 ± 0.15	0.362 ± 0.17
AAUUAGCAAUAUUACGCACU	-0.0585 ± 0.12	-0.106 ± 0.15
AAUUAGCAAUAUUACGCCCC	-0.573 ± 0.33	-0.798 ± 0.49
AAUUAGCAAUAUUACGCGCU	-0.647 ± 0.13	-0.214 ± 0.2

Sequence	self-splicing fitness (ln) (30 °C)	self-splicing fitness (ln) (37 °C)
AAUUAGCAAUAUUACGCUCU	-0.501 ± 0.11	0.54 ± 0.15
AAUUAGCAAUAUUACGCUGC		-2.79 ± 0.4
AAUUAGCAAUAUUACGGAAA	-1.83 ± 0.29	-1.72 ± 0.49
AAUUAGCAAUAUUACGGACU	-0.43 ± 0.087	0.51 ± 0.14
AAUUAGCAAUAUUACGGAGG	-3.68 ± 0.39	-1.87 ± 0.25
AAUUAGCAAUAUUACGGCGC	-0.632 ± 0.13	-0.211 ± 0.13
AAUUAGCAAUAUUACGGGGC	-2.38 ± 0.21	
AAUUAGCAAUAUUACGUCAG	-1.16 ± 0.14	-1.47 ± 0.24
AAUUAGCAAUAUUACGUGGU	-4.47 ± 0.26	-2.18 ± 0.14
AAUUAGCAAUAUUACGUGUC	-3.59 ± 0.29	-1.79 ± 0.2
AAUUAGCAAUAUUACGUUGA	-2.74 ± 0.15	-1.55 ± 0.11
ACAAAGCAAUAUUACGAAAC		-0.88 ± 0.2
ACAAAGCAAUAUUACGACUC	-0.72 ± 0.11	-0.304 ± 0.12
ACAAAGCAAUAUUACGAUAG	-3.47 ± 0.17	-2.21 ± 0.19
ACAAAGCAAUAUUACGAUGU	-3.56 ± 0.11	-2.43 ± 0.12
ACAAAGCAAUAUUACGCAAC	-2.37 ± 0.17	-0.412 ± 0.17
ACAAAGCAAUAUUACGCAGA	-2.12 ± 0.14	-1.06 ± 0.093
ACAAAGCAAUAUUACGCGGC	-2.91 ± 0.13	-3.04 ± 0.21
ACAAAGCAAUAUUACGCUAG	-1.53 ± 0.072	-1.72 ± 0.086
ACAAAGCAAUAUUACGGCCA	-1.13 ± 0.14	-0.00489 ± 0.11
ACAAAGCAAUAUUACGGCGU	-1.78 ± 0.075	-1.17 ± 0.093
ACAAAGCAAUAUUACGGGAC	-3.25 ± 0.17	-1.96 ± 0.14
